Substrate: COc1cc(/C=C/CO)ccc1O
Assay: Kinetic characterisation of purified tobacco CAD enzyme
Type: biochemical
Settings: other: pure enzyme purified to homogeneity from tobacco stems; specific for NADP; pH 7.5
Method: Six week old tobacco stems were frozen in liquid N, crushed with a hammer and homogenized in a Waring blender in buffer A. The homogenate was centrifuged at 45000×g for 30 min. Solid ammonium sulphate was added to the supernatant to bring it to 70% saturation and proteins were precipitated at 4° C. for 30 min. The precipitate was collected by centrifugation at 10,000 rpm for 1 hour. The pellet was resuspended in a minimum volume of buffer supplemented with 5% ethylene glycol, to reduce the ammonium sulphate concentration to approximately 40% saturation.
The supernatant was desalted and applied to a Blue Sepharose column. The column was washed in at least 6 column volumes buffer including one column volume supplemented with 4 mM NAD. This wash elutes other alcohol dehydrogenases. Specific elution of CAD was performed with a gradient of 0-4 mM NADP in buffer B. CAD-containing fractions were pooled and 5% ethylene glycol was added.
The pooled fractions from Blue Sepharose were applied to an FPLC Mono Q column. The column was washed until the Absorbance dropped to baseline levels. Proteins were eluted in a linear gradient of buffer with 20-400 mM Tris-HCl, pH 7.5.
MonoQ fractions were applied to a column of 2'5'ADP-Sepharose. The column was washed with 6 column volumes buffer including one column volume supplemented with 4 mM NAD. […]

B1: tobacco cinnamyl alcohol dehydrogenase (CAD, E.C. 1.1.1.195), purified from tobacco stems (Nicotiana tabacum) (protein)
chain 1: MGSLDVEKSAIGWAARDPSGLLSPYTYTLRNTGPEDVQVKVLYCGLCHSDLHQVKNDLGMSNYPLVPGHEVVGKVVEVGADVSKFKVGDTVGVGLLVGSCRNCGPCKREIEQYCNKKIWNCNDVYTDGKPTQGGFANSMVVDQNFVVKIPEGMAPEQAAPLLCAGITVYSPFNHFGFNQSGFRGGILGLGGVGHMGVKIAKAMGHHVTVISSSNKKRQEALEHLGADDYLVSSDTDKMQEAADSLDYIIDTVPVGHPLELYLSLLKIDGKLILIGVINTPLQFISPMVMLGRKSITGSFIGSMKETEEMLDFCKEKGVTSQIEIVKMDYINTAMERLEKNDVSYRFVVDVAGSKLDQ
chain 2: MGGLEVEKTTIGWAARDPSGVLSPYTYTLRNTGPEDVEVKVLYCGLCHTDLHQVKNDLGMSNYPLVPGHEVVGEVVEVGPDVSKFKVGDTVGVGLLVGSCRNCGPCKRDIEQYCNKKIWNCNDVYTDGKPTQGGFAKSMVVDQKFVVKIPEGMAPEQAAPLLCAGITVYSPLNHFGFKQSGLRGGILGLGGVGHMGVKIAKAMGHHVTVISSSNKKRQEALEHLGADDYLVSSDTDKMQEASDSLDYIIDTVPVGHPLEPYLSLLKIDGKLILMGVINTPLQFISPMVMLGRKSITGSFIGSMKETEEMLDFCKEKGVTSQIEIVKMDYINTAMERLEKNDVRYRFVVDVIGSKLDQ
notes: Using this protocol tobacco CAD was purified to homogeneity; from tissue; host or cells: stems of six week old tobacco plants
Km: 12 µM

Reference: patent US6066780A, “Modification of lignin synthesis in plants” (Zeneca Limited, priority 1991, dated 2000)
